For orientation: Kd means a measure of binding affinity in units of concentration. Higher therefore signals a looser complex. For orientation: koff means a measure of how fast the partners let go of each other. Lower therefore signals slow dissociation. In general, kon refers to a measure of how fast the partners come together.

The target of the assay is T1, PODXL on the surface of hESCs (human, UniProt O00592 23-558, glycosylated (sites not given)).
T1 construct: also called human embryonic stem cells
T1 sequence: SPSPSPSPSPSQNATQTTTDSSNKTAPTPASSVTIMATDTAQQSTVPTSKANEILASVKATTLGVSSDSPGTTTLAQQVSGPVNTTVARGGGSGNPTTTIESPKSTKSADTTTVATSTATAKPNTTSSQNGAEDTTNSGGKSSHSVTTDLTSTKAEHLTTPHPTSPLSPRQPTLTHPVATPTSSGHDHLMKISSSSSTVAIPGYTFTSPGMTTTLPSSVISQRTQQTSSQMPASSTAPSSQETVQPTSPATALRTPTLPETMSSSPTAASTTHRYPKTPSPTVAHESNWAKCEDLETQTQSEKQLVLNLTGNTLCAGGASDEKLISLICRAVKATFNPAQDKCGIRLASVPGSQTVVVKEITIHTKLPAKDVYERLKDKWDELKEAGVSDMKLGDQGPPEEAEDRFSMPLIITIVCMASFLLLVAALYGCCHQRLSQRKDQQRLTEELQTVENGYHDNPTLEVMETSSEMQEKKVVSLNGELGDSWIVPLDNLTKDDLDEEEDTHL
In words: kinetics of binding to PODXL on the surface of hESCs; method not stated.

B1: mAb 84 (antibody, V domains shown)
VH: QVQLQQSGGGLVQPGGSMKLSCVASGFTFSNYWMNWVRQSPEKGLEWVAEIRLKSNNYATHYAESVKGRFTISRDDSKSSVYLQMNNLRAEDTGIYYCTGERAWGQGTTVTVSS
VL: DIELTQSPAIMSASPGEKVTMTCSASSSVNYMYWYQQKPGSSPRLLIYDTSNLASGVPVRFSGSGSGTSYSLTISRMEAEDAATYYCQQWSSYPYTFGGGTKLEIKR
With B1, the Kd was 40 nM, the koff worked out at 0.0029 s⁻¹ and the kon is 71000 M⁻¹ s⁻¹.

Source of the values: patent publication US20130115627A1 (AGENCY FOR SCIENCE TECHNOLOGY AND RESEARCH, published 2013).
